Assay results taken from patent US20220289820.

Tested on: D11-CD8stk-IL2Rg_A5-Hinge-IL2Rb
Sequence (chain, as listed by the source, chain 1 of 2): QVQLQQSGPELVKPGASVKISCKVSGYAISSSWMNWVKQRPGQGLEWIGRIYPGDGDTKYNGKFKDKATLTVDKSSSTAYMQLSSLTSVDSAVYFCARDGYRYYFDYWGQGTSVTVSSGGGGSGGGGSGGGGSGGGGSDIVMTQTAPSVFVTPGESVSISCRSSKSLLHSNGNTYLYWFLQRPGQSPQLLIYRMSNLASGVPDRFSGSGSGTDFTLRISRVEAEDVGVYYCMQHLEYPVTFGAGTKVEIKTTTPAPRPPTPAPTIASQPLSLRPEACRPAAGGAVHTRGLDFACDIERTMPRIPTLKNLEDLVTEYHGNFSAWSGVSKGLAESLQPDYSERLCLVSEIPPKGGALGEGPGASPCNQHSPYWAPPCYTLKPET
Sequence (chain, as listed by the source, chain 2 of 2): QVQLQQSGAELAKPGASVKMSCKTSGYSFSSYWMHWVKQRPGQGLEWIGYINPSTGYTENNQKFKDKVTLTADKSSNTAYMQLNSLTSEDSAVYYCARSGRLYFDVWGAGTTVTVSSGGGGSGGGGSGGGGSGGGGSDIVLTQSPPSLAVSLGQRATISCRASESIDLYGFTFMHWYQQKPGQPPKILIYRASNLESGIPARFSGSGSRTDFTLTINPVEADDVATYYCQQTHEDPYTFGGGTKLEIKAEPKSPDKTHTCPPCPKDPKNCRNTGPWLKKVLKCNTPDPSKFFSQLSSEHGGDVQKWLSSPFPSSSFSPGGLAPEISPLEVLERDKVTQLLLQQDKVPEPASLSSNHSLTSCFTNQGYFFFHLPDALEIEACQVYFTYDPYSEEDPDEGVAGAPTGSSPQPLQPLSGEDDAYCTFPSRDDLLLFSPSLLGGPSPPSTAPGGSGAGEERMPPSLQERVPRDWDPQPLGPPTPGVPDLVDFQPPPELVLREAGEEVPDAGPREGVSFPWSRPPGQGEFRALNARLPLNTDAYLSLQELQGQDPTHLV

How did the “phosphorylation of Y694 of STAT5 (phosphoflow)” value turn out when prostate-specific antigen (PSA) was run?
Its value is “In the cells expressing the PSA CCR, the presence of PSA lead to increasing STAT5 phosphorylation with time”.
